Results: patent publication US20200121803A1 (published 2020)

T1: human CD98 on human cancer cell lines (EBC-1, H2170, Molt-4) (human)
T1 chain: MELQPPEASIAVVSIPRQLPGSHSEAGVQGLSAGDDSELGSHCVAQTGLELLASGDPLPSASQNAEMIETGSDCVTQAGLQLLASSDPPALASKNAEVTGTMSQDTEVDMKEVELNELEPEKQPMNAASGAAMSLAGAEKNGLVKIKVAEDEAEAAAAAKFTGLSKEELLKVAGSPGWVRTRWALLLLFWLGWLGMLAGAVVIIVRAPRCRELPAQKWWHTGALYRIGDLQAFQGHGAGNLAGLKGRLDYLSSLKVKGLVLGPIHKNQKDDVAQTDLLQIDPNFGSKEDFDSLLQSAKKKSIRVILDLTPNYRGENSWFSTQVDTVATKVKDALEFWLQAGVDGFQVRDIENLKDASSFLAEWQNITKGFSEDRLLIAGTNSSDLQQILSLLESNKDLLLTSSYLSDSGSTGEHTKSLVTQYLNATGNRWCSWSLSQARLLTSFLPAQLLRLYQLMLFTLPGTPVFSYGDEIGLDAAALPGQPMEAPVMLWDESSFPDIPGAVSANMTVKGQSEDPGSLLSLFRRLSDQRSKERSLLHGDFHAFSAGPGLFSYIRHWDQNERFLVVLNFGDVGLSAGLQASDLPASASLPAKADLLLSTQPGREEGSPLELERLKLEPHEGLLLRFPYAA

T2: human CD98 on the cell surface (human)
T2 chain: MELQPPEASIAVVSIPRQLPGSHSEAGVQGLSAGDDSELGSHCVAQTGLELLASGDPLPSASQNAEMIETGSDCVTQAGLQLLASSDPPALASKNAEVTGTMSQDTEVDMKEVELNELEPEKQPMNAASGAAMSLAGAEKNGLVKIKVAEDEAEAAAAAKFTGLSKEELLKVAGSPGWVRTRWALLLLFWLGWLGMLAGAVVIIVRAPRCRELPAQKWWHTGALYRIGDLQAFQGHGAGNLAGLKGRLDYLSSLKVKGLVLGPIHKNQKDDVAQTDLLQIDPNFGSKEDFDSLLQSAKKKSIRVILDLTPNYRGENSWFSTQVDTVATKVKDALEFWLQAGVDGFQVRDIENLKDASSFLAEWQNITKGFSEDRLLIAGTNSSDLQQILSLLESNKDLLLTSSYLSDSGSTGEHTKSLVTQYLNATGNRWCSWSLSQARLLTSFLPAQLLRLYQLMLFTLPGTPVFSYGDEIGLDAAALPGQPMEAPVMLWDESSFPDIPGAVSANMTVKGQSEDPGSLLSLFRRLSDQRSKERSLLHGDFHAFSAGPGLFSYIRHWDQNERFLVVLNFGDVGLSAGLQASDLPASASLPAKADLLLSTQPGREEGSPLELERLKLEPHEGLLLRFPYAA


Molecular target: T1, human CD98 on human cancer cell lines …
Experiment: cell-based or functional assay

| Binder | ADC potency, IC50 (nM), EBC (NSCLC), growth inhibition (CellTiter-Glo) [nM] | ADC potency, IC50 (nM), H2170 (NSCLC), growth inhibition (CellTiter-Glo) [nM] | ADC potency, IC50 (nM), MOLT4 (leukemia), growth inhibition (CellTiter-Glo) [nM] |
| --- | --- | --- | --- |
| ChAb3-CZ-DAR2 (anti-CD98 chimeric chAb3 conjugated to Bcl-xL inhibitor synthon CZ, HIC-purified DAR2 species) (antibody, human IgG1, V domains shown, Bcl-xL inhibitor synthon CZ conjugated to cysteines of the TCEP-reduced antibody (Method H); positions not given; Bcl-xL inhibitor synthon CZ conjugated to cysteines of the TCEP-reduced antibody (Method H); DAR 2.0 by MS; positions not given) VH: EVKLVESGGGLVQPGNSLRLSCATSGFTFIDYYMSWVRQSPGKALEWLGFIRNKANGYTTEYSASVKGRFTISRDNSQSILYLQMDTLRAEDSATYYCTRDRPAWFVYWGQGTLVTVSA VL: DIVMSQSPSSLAVSVGEKVTMSCKSSQSLLYSSNQKNYLAWYQQKPGQSPKLLIYWASTRESGVPDRFTGSGSGTDFTLTFSSVRAEDLAVYYCQQYYSYPYTFGGGTKLEIK | 271 | 0.273 | 0.046 |
| ChAb3-CZ-DAR4 (anti-CD98 chimeric chAb3 conjugated to Bcl-xL inhibitor synthon CZ, HIC-purified DAR4 species) (antibody, human IgG1, V domains shown, Bcl-xL inhibitor synthon CZ conjugated to cysteines of the TCEP-reduced antibody (Method H); positions not given; Bcl-xL inhibitor synthon CZ conjugated to cysteines of the TCEP-reduced antibody (Method H); DAR 4.0 by MS; positions not given) VH: EVKLVESGGGLVQPGNSLRLSCATSGFTFIDYYMSWVRQSPGKALEWLGFIRNKANGYTTEYSASVKGRFTISRDNSQSILYLQMDTLRAEDSATYYCTRDRPAWFVYWGQGTLVTVSA VL: DIVMSQSPSSLAVSVGEKVTMSCKSSQSLLYSSNQKNYLAWYQQKPGQSPKLLIYWASTRESGVPDRFTGSGSGTDFTLTFSSVRAEDLAVYYCQQYYSYPYTFGGGTKLEIK | 10.4 | 0.225 | 0.021 |

Molecular target: T2, human CD98 on the cell surface
Experiment: cell-based or functional assay

| Binder | ADC potency, IC50 (nM), H146 (SCLC) growth inhibition [nM] | ADC potency, IC50 (nM), H2170 (NSCLC) growth inhibition [nM] | ADC potency, IC50 (nM), MOLT4 (leukemia) growth inhibition [nM] |
| --- | --- | --- | --- |
| ChAb13-CZ (other, synthon CZ on reduced interchain Cys of the constant regions (sites not numbered)) VH: QVQLKESGPGLVQPSQTLSLTCTVSGFSLSSYGVIWVRQPPGKGLEWMGIIWANGNTNYNSALKSRLSISRDTSKSQVYLKMNSLQTEDTATYYCARHYYDGTHYYGYFDYWGQGVMVTVSS VL: DTVMTQTPSSQAVSAGEKVTMSCKSSQSLLYSENKKKYLAWYQQKPGQSPKLLIYWASTRESGVPDRFIGSGSGTDFTLTISSVQAEDLAVYYCQQYYNFPYTFGAGTKLELK | 0.115 | 0.321 | 0.052 |
| ChAb10-CZ (other, synthon CZ on reduced interchain Cys of the constant regions (sites not numbered)) VH: EVQLVESGGGLVQPGRSLKLSCAASGFTFSDYAMAWVRQAPKKSLEWVATIIYDGRGTYCRDSVKGRFTISRDNAKSTLYLQMDSLRSEDTATYYCARQGDGTYHYWGYFDYWGQGVMVTVSS VL: DIVMTQSPSSLAVSAGETVTINCKSSQSLLSSGNQKNYLAWYQQKPGQSPKLLIYWASTRQSGVPDRFIGSGSGTDFTLTISSVQAEDLAIYYCQQYYDTPYTFGAGTKVDLK | 0.209 | 0.09 | 0.035 |
| ChAb15-CZ (other, synthon CZ on reduced interchain Cys of the constant regions (sites not numbered)) VH: EVQLVESGGGLVQPGRSLKLSCAASGFTFSDYTMAWVRQAPKKGLEWVATIIYDGRGTYYRDSVKGRFTISRDNAKSTLYLQMDSLRSEDTATYYCARQSDGTYYYWGYFDYWGQGVMVTVSS VL: DIVMTQSPSSLAVSAGETVTINCKSSQSLLFSGNQKNYLAWYQQKPGQSPKLLIYWASTRQSGVPDRFIGSGSGTDFTLTIRSVQAEDLAIYYCQQYYDSPYTFGAGTKLELK | 0.194 | 0.137 | 0.048 |
| ChAb12-CZ (other, synthon CZ on reduced interchain Cys of the constant regions (sites not numbered)) VH: EVQLVESGGGLVQPGRSLKLSCAASGFTFSDYAMAWVRQAPKKGLEWVASIIYDGRGTYYRDSVKGRFTISRDNAKSTLYLQMDSLRSEDTATYYCARQGDGTYYYWGSFDYWGQGVMVTVSS VL: DIVMTQSPSSLAVSAGETVTINCKSSQSLLSSGNQKNYLAWYQQKPGQSPKLLIYWASTRQSGVPDRFIGSGSGTDFTLTISSVQAEDLAIYHCQQYYDTPYTFGAGTKLELK | 0.242 | 0.118 | 0.034 |
| ChAb11-CZ (other, synthon CZ on reduced interchain Cys of the constant regions (sites not numbered)) VH: EVQLVESGGGLVQPGRSLKLSCAASGFTFSDYAMAWVRQAPKKGLEWVAGIIYDGRGTYYRDSVKGRFTISRDNAKSTLYLQMDSLRSEDTATYYCARQGDGTYYYWGYFDYWGQGVMVTVSS VL: DIVMTQSPSSLAVSAGETVTINCRSSQSLLSSGNQKNYLAWYQQKPGQSPKLLIYWASTRQSGVPDRFIGSGSGTDFTLTISSVQAEDLAIYYCQQYYDTPYTFGAGTKLELK | 0.527 | 0.195 | 0.199 |
